Consider one substance from article doi:10.1101/2025.03.04.641395.

Usually stoichiometry N stands for the number of molecules, sites or subunits per partner or assembly.

For assay [1], the target named is ForJ (Streptomyces formicae). Briefly: non-reducing SDS-PAGE.
Assay [2] deals with ForJ (Streptomyces formicae). The assay is described as follows: mass photometry.
Assay [3] addresses ForJ (Streptomyces formicae). The assay is described as follows: non-reducing SDS-PAGE. This is another data set of the same source.
Assay [4] deals with ForJ (Streptomyces formicae). The assay is described as follows: mass photometry. This is another data set of the same source.

As for ForJ (natural protein), the stoichiometry N in assay [1] came out at 4; in assay [2] it was 4; in assay [3] it was 2; in assay [4], 2.
